Results published in PMC7926950, “Constructing an Efficient Bacillus subtilis Spore Display by Using Cohesin−Dockerin Interactions” (Molecules, 2021).

Substrate: O=[N+]([O-])c1ccccc1O[C@@H]1O[C@H](CO)[C@H](O)[C@H](O)[C@H]1O
Experiment: purified protein
Type: biochemical, Geobacillus kaustophilus
Conditions: free enzyme, not displayed on spores, ONPG 0.83-20 mM, general assay printed as 20 mM potassium phosphate pH 6.0, 75 °C (spore assay)

B1: Bsβ–Gal (Geobacillus kaustophilus) (protein)
chain: MNVLSSICYGGDYNPEQWPEEIWYEDAKLMQKAGVNLVSLGIFSWSKIEPSDGVFDFEWLDKVIDILYDHGVYINLGTATATTPAWFVKKYPDSLPIDESGVILSFGSRQHYCPNHPQLITHIKRLVRAIAERYKNHPALKMWHVNNEYACHVSKCFCENCAVAFRKWLKERYKTIDELNERWGTNFWGQRYNHWDEINPPRKAPTFINPSQELDYYRFMNDSILKLFLTEKEILREVTPDIPVSTNFMGSFKPLNYFQWAQHVDIVTWDSYPDPREGLPIQHAMMNDLMRSLRKGQPFILMEQVTSHVNWRDINVPKPPGVMRLWSYATIARGADGIMFFQWRQSRAGAEKFHGAMVPHFLNENNRIYREVTQLGQELKKLDCLVGSRIKAEVAIIFDWENWWAVELSSKPHNKLRYIPIVEAYYRELYKRNIAVDFVRPSDDLTKYKVVIAPMLYMVKEGEDENLRQFVANGGTLIVSFFSGIVDENDRVHLGGYPGPLRDILGIFVEEFVPYPETKVNKIYSNDGEYDCTTWADIIRLEGAEPLATFKGDWYAGLPAVTRNCYGKGEGIYVGTYPDSNYLGRLLEQVFAKHHINPILEVAENVEVQQRETDEWKYLIIINHNDYEVTLSLPEDKIYQNMIDGKCFRGGELRIQGVDVAVLREHDEAGKV
notes: full-length bgaB in pET-28a (PCR from pJS-cotY-bgaB), expressed in E. coli BL21(DE3), heat treatment and Ni-NTA, free enzyme; printed as tetrameric
Km: 2970 ± 50 µM
